Test results: patent US12674174B2, “Protoporphyrinogen oxidase (PPO) resistance plant” (PLANTARC BIO LTD., priority 2022, dated 2026)

Legend:
[1] = tested on: transgenic Arabidopsis plants; assay type: in vivo; settings: for level of resistance against Aurora (in words): Aurora 0.01% to 0.5%, compared to control plants; for level of resistance to Strike, more tolerant to treatment as compared to control plants: Strike 0.01% to 1%, 5 orders of magnitude
From the text: (SEQ ID NO: 8 was cloned from SEQ ID NO: 1, SEQ ID NO: 9 was cloned from SEQ ID NO: 2, SEQ ID NO: 10 was cloned from SEQ ID NO: 3, SEQ ID NO: 11 was cloned from SEQ ID NO: 4, SEQ ID NO: 12 was cloned from SEQ ID NO: 5, SEQ ID NO: 13 was cloned from SEQ ID NO: 6 SEQ ID NO: 14 was cloned from SEQ ID NO: 7). […] FIG. 1B summarizes the results of the three experiments described hereinabove.

Arabidopsis plants = settings: yes/no

B1: SEQ ID NO: 6: PPO from Rhizopus sp. Protein. (protein, listed as Rhizopus sp.)
chain: MSSVAILGGGISGLSAAYYLARMAPPTTKITLIEGKKRLGGWIESRRVTPGHYDNIHQLPKNNSKENTILFEAGPRTLRPEGSNGAILLEMIRHLELNNENLMSVSKSHPSARHRYIYYKDKINTLPSDLQSFLLNKPPVLKSVPLAALLEPLKPSRFDKDGIAKDGIQDESIYSFMTRRFNEHTAIHLMGAVIHGIYAGDIKSLSLQSTLRSLYEAERIYGSAVLGMMKGASQVTTSVRERGMAARSRKEDPEWFGRMEKMSVIGFKSGMDTLPHQITSWLEQCPNVEVITDDPAEHIEIAHENKIKTQKGKTVHADHIISTLPSPVLERLVQHQPVLPHLSYNPSADVAVVNLAYSPDEMKLQYDGFGFLTPHRDTPYGNPLPGTLGVVFDSNALPIESERAVKLTAMIGGSDWKDAFGNVPIDELEPKVALDYTRKAVGTFLDIHAEPRYSMVNLQKQCIPQYLVGHQDRMLSLHHAIKKNYGHALSVSGASYLGVSVPDCIKNSRMLVEELLVSGALGSRQKVVTGLGKLEEQPTVDEMRDNARLSRGNTSVIMKS
[1]
  level of resistance against Aurora (in words): very high levels of resistance
  level of resistance to Strike, more tolerant to treatment as compared to control plants: about 10^5

B2: SEQ ID NO: 2: PPO from Aspergillus sp. Protein. (protein, listed as Aspergillus sp.)
chain: MRLPCASSRAFRQVRAPLALLHRGQRHAVHTKQFDAAVIGGGITGLTAAYQLSRDPSCSKVTLYEKSSHLGGWLSSEQIPVPGGHVVFEYGPRTLRTSSPSCLPMMDLIMNLDLLDDVLICDKKSPAAQNRYIYYPDHLVRLPFPPTEGLLKTAWTLLMEPLFETFLYSAIFEKPKRAENTHILSRDESVADFVSRRFSPKISENLASAVMAGIFAGDVNRLSAEMAIGYVRELEKRYGSIVDGMMTQRASEMRAMPMDELLALESVAVPSHSDDRYWKSLRAVVTDASVLTLKNGLGQLTDAMAAQLRSSRNVEVVTGTEVTSLSQNPKTQDLTIGFGKNESRTHNRVIATHAPSSLARQIQNTKVGVVPSDTIRDLGQNNYAVTVMVVNLYYEDPDLVPVEGFGYLLPSSVPFEQNPERALGVIFGSQSSEGQDTAPGTKLTVIMGGHLWDGWSESDYPDPDKAIEMAQALLHRHLGIKTAPSVARARLLRDAIPQYTVGHLSRMKELSHSVRSDFHKRLTLAGAWYGTVGIGVVDCIRQGYLASSYGVGSKKLGPGNSRRPWTKHDFHNWELEGGIATSPVRFDNVHVTERQHY
[1]
  level of resistance against Aurora (in words): very high levels of resistance
  level of resistance to Strike, more tolerant to treatment as compared to control plants: about 10^5
Arabidopsis plants; Table 1
  High concentration herbicide tolerance: yes
Arabidopsis plants; Table 2, FIG. 6C legend: Star 1.25 kg/hectare
  Herbicide tolerance: yes
